Measured values reported in patent US20240327475A1 (UNIVERSITY OF MARYLAND COLLEGE PARK, published 2024).

B1: ICAM-1 on human cells (HUVEC; human brain endothelial cells and astrocytes of the BBB model; iPS-derived neurons from a Gaucher patient) (receptor, UniProt P05362 28-532, looked up)
chain: QTSVSPSKVILPRGGSVLVTCSTSCDQPKLLGIETPLPKKELLLPGNNRKVYELSNVQEDSQPMCYSNCPDGQSTAKTFLTVYWTPERVELAPLPSWQPVGKNLTLRCQVEGGAPRANLTVVLLRGEKELKREPAVGEPAEVTTTVLVRRDHHGANFSCRTELDLRPQGLELFENTSAPYQLQTFVLPATPPQLVSPRVLEVDTQGTVVCSLDGLFPVSEAQVHLALGDQRLNPTVTYGNDSFSAKASVSVTAEDEGTQRLTCAVILGNQSQETLQTVTIYSFPAPNVILTKPEVSEGTEVTVKCEAHPRAKVTLNGVPAQPLGPRAQLLLKATPEDNGRSFSCSATLEVAGQLIHKNQTRELRVLYGPRLDERDCPGNWTWPENSQQTPMCQAWGNPLPELKCLKDGTFPLPIGESVTVTRDLEGTYLCRARSTQGEVTRKVTVNVLSPRYEIVIITVVAAAVIMGTAGLSTYLYNRQRKIKKYRLQQAQKGTPMKPNTQATPP
notes: whole, on cells; also called ICAM receptor; intercellular adhesion molecule-1

Assays:
[1] = target: T1, control non-targeted ASM (Olipudase); full recombinant ASM produced by He et al. (1999), which served as … (human, UniProt P17405 62-631); assay: Incubation with HUVEC cells (known to express ICAM-1) for 3 h at 37° C., then fixation, permeabilization and anti-ASM + FITC-secondary antibody staining (cell association and uptake)
T1 construct: also called control ASM
T1 sequence (looked up): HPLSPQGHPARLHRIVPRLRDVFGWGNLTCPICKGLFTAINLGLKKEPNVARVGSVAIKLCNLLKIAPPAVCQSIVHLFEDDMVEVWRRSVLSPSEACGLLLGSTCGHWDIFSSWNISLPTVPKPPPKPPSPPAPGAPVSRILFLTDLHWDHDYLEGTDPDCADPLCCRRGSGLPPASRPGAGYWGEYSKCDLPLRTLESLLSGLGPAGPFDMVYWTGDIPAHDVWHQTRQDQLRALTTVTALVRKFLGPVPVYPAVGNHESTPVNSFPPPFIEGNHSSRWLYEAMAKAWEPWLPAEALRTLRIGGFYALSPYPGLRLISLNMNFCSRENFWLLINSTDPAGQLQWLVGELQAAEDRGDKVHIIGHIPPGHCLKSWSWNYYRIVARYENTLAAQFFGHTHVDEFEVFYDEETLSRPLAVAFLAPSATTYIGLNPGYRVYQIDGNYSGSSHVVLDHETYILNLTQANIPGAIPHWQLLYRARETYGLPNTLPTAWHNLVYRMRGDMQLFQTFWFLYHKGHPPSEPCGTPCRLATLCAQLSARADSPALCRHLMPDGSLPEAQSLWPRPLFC

[2] = target: B1; assay: cell-based or functional assay

B1
binding result [1]: no binding

B2: targeted fusion GCase protein J in Example 1 (human GCase with five tandem-repeats of the 2γ3 ICAM-1-targeting peptide at the amino terminus), after … (enzyme)
chain: NNQKIVNIKEKVAQIEAGGGGSGGGGSNNQKIVNIKEKVAQIEAGGGGSGGGGSNNQKIVNIKEKVAQIEAGGGGSGGGGSNNQKIVNIKEKVAQIEAGGGGSGGGGSNNQKIVNIKEKVAQIEAGGGGSGGGGSGFLGARPCIPKSFGYSSVVCVCNATYCDSFDPPTFPALGTFSRYESTRSGRRMELSMGPIQANHTGTGLLLTLQPEQKFQKVKGFGGAMTDAAALNILALSPPAQNLLLKSYFSEEGIGYNIIRVPMASCDFSIRTYTYADTPDDFQLHNFSLPEEDTKLKIPLIHRALQLAQRPVSLLASPWTSPTWLKTNGAVNGKGSLKGQPGDIYHQTWARYFVKFLDAYAEHKLQFWAVTAENEPSAGLLSGYPFQCLGFTPEHQRDFIARDLGPTLANSTHHNVRLLMLDDQRLLLPHWAKVVLTDPEAAKYVHGIAVHWYLDFLAPAKATLGETHRLFPNTMLFASEACVGSKFWEQSVRLGSWDRGMQYSHSIITNLLYHVVGWTDWNLALNPEGGPNWVRNFVDSPIIVDITKDTFYKQPMFYHLGHFSKFIPEGSQRVGLVASQKNDLDAVALMHPDGSAVVVVLNRSSKDVPLTIKDPAVGFLETISPGYSIHTYLWRRQ
modifications: pre-labeled with 125Iodine
association to iPS-derived neurons from a Gaucher patient, fold over control non-targeted enzyme [2]: ~3 fold
